Source: US20260116958A1 (University of California, published 2026)
Changes are numbered by the printed parent chain. Read-outs that look alike come from different tables or passages of the source.

Legend:
[1] = biological target: T1, inactive BoNT/G (BoNT/Gi) (Clostridium botulinum, UniProt Q60393 1-1297); experiment: scFv on yeast surface
T1 sequence: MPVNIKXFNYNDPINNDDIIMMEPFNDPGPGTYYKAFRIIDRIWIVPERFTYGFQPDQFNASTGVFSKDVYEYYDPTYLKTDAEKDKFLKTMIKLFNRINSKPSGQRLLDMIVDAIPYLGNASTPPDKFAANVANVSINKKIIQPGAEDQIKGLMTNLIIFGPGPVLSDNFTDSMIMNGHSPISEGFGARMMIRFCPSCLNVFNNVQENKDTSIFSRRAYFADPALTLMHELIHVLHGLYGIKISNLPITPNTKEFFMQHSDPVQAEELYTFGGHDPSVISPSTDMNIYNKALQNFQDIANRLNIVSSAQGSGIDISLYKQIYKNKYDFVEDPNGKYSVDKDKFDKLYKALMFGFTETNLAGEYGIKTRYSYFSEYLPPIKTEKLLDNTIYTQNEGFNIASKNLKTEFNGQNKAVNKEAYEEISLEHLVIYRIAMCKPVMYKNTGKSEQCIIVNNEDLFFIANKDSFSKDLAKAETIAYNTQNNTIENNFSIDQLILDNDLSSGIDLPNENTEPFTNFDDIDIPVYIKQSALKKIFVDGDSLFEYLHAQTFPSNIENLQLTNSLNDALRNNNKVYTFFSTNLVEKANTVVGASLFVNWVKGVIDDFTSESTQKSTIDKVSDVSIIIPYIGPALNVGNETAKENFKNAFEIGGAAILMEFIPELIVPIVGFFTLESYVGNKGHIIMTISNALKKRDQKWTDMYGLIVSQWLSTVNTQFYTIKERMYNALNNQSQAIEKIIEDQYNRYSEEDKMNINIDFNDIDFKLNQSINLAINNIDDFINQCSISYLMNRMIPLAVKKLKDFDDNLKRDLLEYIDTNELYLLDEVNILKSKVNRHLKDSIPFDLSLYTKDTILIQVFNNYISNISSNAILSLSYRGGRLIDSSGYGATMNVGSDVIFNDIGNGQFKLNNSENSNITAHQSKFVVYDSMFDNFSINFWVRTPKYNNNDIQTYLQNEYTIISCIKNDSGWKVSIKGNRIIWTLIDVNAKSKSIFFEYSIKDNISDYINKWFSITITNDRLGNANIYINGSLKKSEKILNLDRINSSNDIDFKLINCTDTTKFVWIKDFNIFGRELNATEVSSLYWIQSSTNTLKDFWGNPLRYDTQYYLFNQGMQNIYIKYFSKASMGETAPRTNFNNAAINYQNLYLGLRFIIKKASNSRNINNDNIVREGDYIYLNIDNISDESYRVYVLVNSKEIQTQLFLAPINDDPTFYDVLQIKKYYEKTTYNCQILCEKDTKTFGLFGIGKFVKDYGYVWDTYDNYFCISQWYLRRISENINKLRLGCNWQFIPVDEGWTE

[2] = biological target: inactive BoNT/G (BoNT/Gi) (Clostridium botulinum) (UniProt Q60393); experiment: flow cytometry, scFv on yeast
[3] = biological target: inactive BoNT/G (BoNT/Gi) (Clostridium botulinum) (UniProt Q60393); experiment: flow cytometry, scFv on yeast surface
[4] = biological target: inactive BoNT/G (BoNT/Gi) (Clostridium botulinum) (UniProt Q60393); experiment: FACS, scFv on yeast
active BoNT/G holotoxin [5] = biological target: T2, active BoNT/G holotoxin (Clostridium botulinum, UniProt Q60393 2-1297); experiment: KinExA, IgG
T2 sequence: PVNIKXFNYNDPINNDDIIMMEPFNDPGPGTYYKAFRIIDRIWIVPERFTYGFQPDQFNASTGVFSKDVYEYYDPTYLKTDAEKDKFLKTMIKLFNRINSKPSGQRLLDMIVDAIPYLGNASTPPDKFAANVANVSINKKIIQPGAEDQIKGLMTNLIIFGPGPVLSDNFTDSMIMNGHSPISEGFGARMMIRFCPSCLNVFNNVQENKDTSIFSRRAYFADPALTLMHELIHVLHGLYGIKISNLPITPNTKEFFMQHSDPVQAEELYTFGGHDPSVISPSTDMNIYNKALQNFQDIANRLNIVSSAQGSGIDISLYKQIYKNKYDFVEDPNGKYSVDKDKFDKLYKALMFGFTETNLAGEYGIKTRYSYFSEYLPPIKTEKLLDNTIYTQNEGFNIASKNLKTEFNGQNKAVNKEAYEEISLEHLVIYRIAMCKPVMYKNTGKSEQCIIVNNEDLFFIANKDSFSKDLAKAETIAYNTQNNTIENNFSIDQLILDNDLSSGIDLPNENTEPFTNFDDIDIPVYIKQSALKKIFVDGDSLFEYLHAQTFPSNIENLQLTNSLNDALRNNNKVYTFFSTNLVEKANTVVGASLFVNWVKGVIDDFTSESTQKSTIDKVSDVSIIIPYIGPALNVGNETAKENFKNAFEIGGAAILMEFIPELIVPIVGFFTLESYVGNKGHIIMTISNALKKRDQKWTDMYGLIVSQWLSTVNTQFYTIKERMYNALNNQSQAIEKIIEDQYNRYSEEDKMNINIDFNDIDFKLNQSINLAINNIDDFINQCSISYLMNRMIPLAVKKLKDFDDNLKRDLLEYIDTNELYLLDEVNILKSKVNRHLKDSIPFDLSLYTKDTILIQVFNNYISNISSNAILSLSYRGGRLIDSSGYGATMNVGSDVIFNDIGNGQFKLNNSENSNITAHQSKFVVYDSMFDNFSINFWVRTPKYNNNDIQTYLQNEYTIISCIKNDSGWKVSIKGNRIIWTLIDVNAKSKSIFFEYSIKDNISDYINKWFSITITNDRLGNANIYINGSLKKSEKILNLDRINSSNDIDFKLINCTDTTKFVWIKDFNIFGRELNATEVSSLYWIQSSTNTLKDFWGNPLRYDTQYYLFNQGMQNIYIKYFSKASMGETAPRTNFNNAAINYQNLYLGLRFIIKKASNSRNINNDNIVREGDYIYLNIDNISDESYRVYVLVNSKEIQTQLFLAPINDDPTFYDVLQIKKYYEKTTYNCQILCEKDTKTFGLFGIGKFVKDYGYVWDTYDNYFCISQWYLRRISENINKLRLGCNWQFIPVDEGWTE

active BoNT/G holotoxin [6] = biological target: T2, active BoNT/G holotoxin; experiment: KinExA, IgG; remark: listed apart in the source
[7] = biological target: inactive BoNT/G (BoNT/Gi) (Clostridium botulinum) (UniProt Q60393); experiment: titration on yeast-displayed scFv, flow cytometry, fit y = m1 + m2*M0/(m0+m3)
[8] = biological target: T1, inactive BoNT/G (BoNT/Gi); experiment: as above
[9] = biological target: T1, inactive BoNT/G (BoNT/Gi); experiment: as above; remark: listed apart in the source
[10] = biological target: T1, inactive BoNT/G (BoNT/Gi); experiment: FACS, scFv on yeast
[11] = biological target: inactive BoNT/G (BoNT/Gi) (Clostridium botulinum) (UniProt Q60393); experiment: scFv on yeast surface

B1: 6G6 scFv (scFv, V domains shown)
VH: EVQLQQSGAELVKPGASVKLSCTASGFNIKDTYMHWVKQRPEQGLEWIGRIDPANGNTKYDPKFQGKATITADTSSNTAYLQLSSLTSEDTAVYYCASGPNYYGTTWFAYWGQGTTVTVSS
VL: QIVLTQSPAILSASPGEKVTMTCRASSSVSYMHWYQQKPGSSPRLWIYRTSNLASGVPARFSGSGSGTSYSLTISSMEAEDAATYYCQQYHSYPRTFGGGTKLEIKR
Kd [1]: 17.7 nM

B2: Hu6G9.1 scFv (scFv)
scFv: QVQLVQSGAEVKKPGASVKMSCKASGYTFTSYWMHWVRQAPGQGLEWVGYINPSTGYTEYNQKFKDRATLTADKSTSTAYMELRSLRSDDTAVYYCARGGNYVDYWGQGTTLTVSSVDLKSGGSTSGSGKPGSGEGSSGSARDIQMTQSPSTLSASVGERVTITCRASHGISSWLAWYQQKPGKAPKRLIYAVSTLQTGVPSRFSDSGSGTDLTLTINSLQPEDFATYYCQDLNSYPLSFGGGTKVEIK
fold improvement in affinity over hu6G9 WT [2]: 9 fold | fold improvement over wild type hu6G9 [3]: 9 fold | Kd [4]: 2.04 nM

B3: Hu6G10 IgG (antibody, V domains shown)
VH: QVQLVQSGAEVKKPGATVKISCKASGYSFTGYFMHWVRQAPGKGLEWIGRINPYNGDIIYNQNFKDRATLTVDKSTSTAYMELSSLRSEDTAVYYCASLFGLYYFDYWGQGTTLTVSS
VL: DVVMTQSPSSVSASVGDRVTITCRASQRISNHLNWYQQKPGKAPKRLIYAASSLESGVPSRFSGSGSGTEFTLTISSLQPEDFATYFCLQHNSYPYTFGQGTKVEIKR
fold improvement over 6G10 (IgG KD) (active BoNT/G holotoxin [5]): 39 fold | Kd (active BoNT/G holotoxin [6]): 0.00836 nM

B4: hu6G6.1 IgG (antibody, V domains shown)
VH: QVQLVQSGAEVKKPGASVKLSCKASGFNIKDTYMHWVRQAPGQGLEWIGRIDPENGNTKYDPKFQGRATITAYKSINTAYLELSRLRSDDTAVYYCASGPNYYGTTWFAYWGQGTTVTVSS
VL: EIVLTQSPSTLSASVGDRVTITCRASHGISNYLAWYQQKPGRAPKLLIYKASTLHIGVPSRFSGSGSGTEFALTISSLQPDDFSTYYCQQYNSYLPHTFGQGTRLEIKR
Kd (active BoNT/G holotoxin [5]): 0.476 nM | fold improvement over hu6G6 (active BoNT/G holotoxin [5]): 18 fold | Kd (active BoNT/G holotoxin [6]): 0.47 nM

B5: 6G9A2 (scFv, V domains shown)
VH: QVQLVQSGAEVKKPGASVKMSCKASGYTFTSYWMHWVRQAPGQGLEWIGYINPSTGYTEYNQKFKDRATLTADKSTSTAYMELRSLRSDDTAVYYCARGGNYVDYWGQGTTLTVSS
VL: DVVMTQSPSFLSASVGDRVTVTCRASQSIGSWLAWYQQKPGKAPKLLIYAASSLQSGVPSRFSASGSGTDFTLTISSLQPDDFATYFCHRLNSYPLTFGGGTKVEIK
Kd [7]: 6.2 nM

B6: 6G9B9 (scFv, V domains shown)
VH: B5 VH
VL: DIQMTQSPSTLSASVGERVTITCRASQGISSWLAWYQQKPGKAPKRLIYAVSTLQTGVPSRFSGSGSGTDLTLTINSLQPEDFATYYCQHLNSYPLTFGGGTKVEIK
Kd [7]: 3.78 nM

B7: hu6G7.1A5 (scFv, V domains shown)
VH: QVQLVQSGAEVKKPGASVKVSCKASDYSFTDYNIYWVRQAPGQGLEWIGYIDPYNGGTSYNQKFKGRATLTVDKSISTAYMELSRLRSDDTAVYYCALYGYDPDYIDYWGPGTTLTVSS
VL: DIVLTQSPASMAASPGQRVTITCSASSSVSYLHWFQQKPGQSPKLMIYGTSNLASGVPVRFSGSGSGTSYSLTINPMEAEDTATYYCQQRSSYPYTFGQGTKLEIK
Kd [7]: 4.91 nM

B8: Hu6G7.2 scFv (scFv, V domains shown)
VH: B7 VH with A40T, I106T, D107E, P111Q
VL: DIVLTQSPASMAVSPGQRVTITCSASSSVSYLHWFQQKPGQSPKLWIYSTSNLASGVPARFSGSGSGTDYTLTINPMEAEDTATYYCQQRSSYPYTFGQGTKLEIKR
Kd [8]: 1.42 nM | Kd [9]: 3.93 nM | Kd [10]: 1.42 nM

B9: hu6G7.1D6 (scFv, V domains shown)
VH: B7 VH with L4P, F64Y, K65R, S77N, D107E, P111Q
VL: B7 VL with M46W, G49S, V59A, S69D, S71T
Kd [7]: 5.03 nM

B10: Hu6G7.1 scFv (scFv, V domains shown)
VH: B7 VH with A40T, P111Q
VL: B8 VL
Kd [8]: 3.2 nM | Kd [10]: 3.2 nM

B11: hu6G6 scFv (scFv)
scFv: QVQLVQSGAEVKKPGASVKLSCKASGFNIKDTYMHWVRQAPGQGLEWIGRIDPANGNTKYDPKFQGRATITADTSINTAYLELSRLRSDDTAVYYCASGPNYYGTTWFAYWGQGTTVTVSSVDLKSGGSTSGSGKPGSGEGSSGSAREIVLTQSPSTLSASVGDRVTITCRASHGISNYLAWYQQKPGRAPKLLIYKASTLHIGVPSRFSGSGSGTEFALTISSLQPDDFSTYYCQQYNSYLPHTFGQGTRLEIK
Kd [2]: 23.2 nM | Kd [4]: 23 nM | Kd [11]: 5 nM | fold improvement over parental 6G6 [11]: > 3 fold
